# Experimental data: US20210380703A1 (RIGEL PHARMACEUTICALS, published 2021)
# Changes are numbered by the printed parent chain.
# B1: 374_A10 (antibody, V domains shown)
# VH: EVQLLESGGGLVQPGGSLRLSCAASGFTFSSYGMHWVRQAPGKGLEWVSGINYNGGYTSYADSVKGRFTISRDNSKNTLYLQMNSLRAEDTAVYYCARAATWHDTHLDYWGQGTLVTVSS
# VL: DIQMTQSPSSLSASVGDRVTITCRASQSILSYVNWYQQKPGKAPKLLIYAATSRASGVPSRFSGSGSGTDFTLTISSLQPEDFATYYCQQSYDTPLTFGGGTKVEIK
# notes: Group II
# B2: 365_E04 (antibody, V domains shown)
# VH: B1 VH with S30D, S49A, G50S, T58K, T101N, H106A
# VL: B1 VL with R54L, D93E, T94L
# notes: Group I
# B3: 365_G08 (antibody, V domains shown)
# VH: B1 VH with S49A, G50S
# VL: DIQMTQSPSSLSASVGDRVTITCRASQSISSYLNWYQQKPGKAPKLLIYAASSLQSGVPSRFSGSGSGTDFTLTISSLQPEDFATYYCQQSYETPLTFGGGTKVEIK
# notes: Group II
# B4: 365_G09 (antibody, V domains shown)
# VH: B1 VH with G33S, H35N, T58K, A99G, T101N
# VL: B1 VL with L30I, S31T, V33L, L47V, D93N, T94S
# notes: Group III
# B5: 365_D03 (antibody, V domains shown)
# VH: B1 VH with S30D, S31D, G33S, S49A, G50S, T58K
# VL: B1 VL with L30V, V33L, L47V, T94S
# notes: Group II
# B6: 365_G06 (antibody, V domains shown)
# VH: B1 VH with S30D, S49A
# VL: B1 VL with V33L, R54L, Y92D, D93S
# notes: Group II
# B7: 365_E06 (antibody, V domains shown)
# VH: B1 VH with S30D, H35N, S59G
# VL: B1 VL with S31T, V33L, L47V, D93N
# notes: Group II
# B8: 365_F02 (antibody, V domains shown)
# VH: B1 VH with G33S, H35N, T58K, S59G, A99G, T101N
# VL: B1 VL with S31T, A55H
# notes: Group III
# B9: 365_C05 (antibody, V domains shown)
# VH: B1 VH with S31D, G33S, H35N, T58K, S59G, A99G, T101N
# VL: B1 VL with S31T, V33L, A55H, D93N, T94S
# notes: Group III
# B10: 365_H07 (antibody, V domains shown)
# VH: B1 VH with S30D, G33S, H35N, A99G, T101N
# VL: B1 VL with L30S, S31T, A55H, D93E, T94N
# notes: Group III
# B11: 365_F11 (antibody, V domains shown)
# VH: B1 VH with S30D, G33S, H35N, G55S, T58K, S59G, T101N
# VL: B1 VL with L30I, D93N
# notes: Group I
# B12: 365_C06 (antibody, V domains shown)
# VH: B1 VH with S31D, T101N, H106A
# VL: B1 VL with L30S, S31T, A51V, R54L, T94N
# notes: Group I
# B13: 365_F10 (antibody, V domains shown)
# VH: B1 VH with S30D, S31D
# VL: B1 VL with L30V, S31T, D93E, T94L
# notes: Group II
# B14: 365_D04 (antibody, V domains shown)
# VH: B1 VH with S31D, S49A, T58K, T101N, H106A
# VL: B1 VL with L30S, V33L, L47V, A51V, T94L
# notes: Group I
# B15: 365_G04 (antibody, V domains shown)
# VH: B1 VH with S30D, G33S, H35N, S49A, S59G, A99G, T101N
# VL: B1 VL with L30V, L47V, R54L
# notes: Group III
# B16: 365_E12 (antibody, V domains shown)
# VH: B1 VH with S31D, H35N, G50N, S59G, A99G, T101N, H106A
# VL: B1 VL with S31T, V33L, D93E
# notes: Group III
# B17: 365_B12 (antibody, V domains shown)
# VH: B1 VH with S31D
# VL: B1 VL with L30S, S31T, A51V, R54L, A55H, T94N
# notes: Group II
# B18: 365_B04 (antibody, V domains shown)
# VH: B1 VH with S49A, G50S, G55S, T101N, H106A
# VL: B1 VL with S31T, V33L, A55H, Y92D, D93E, T94S
# notes: Group I
# B19: 365_G05 (antibody, V domains shown)
# VH: B1 VH with H35N, T58K, S59G, A99G, T101N, H106A
# VL: B1 VL with V33L, L47V, R54L, D93E, T94N
# notes: Group III
# B20: 365_D08 (antibody, V domains shown)
# VH: B1 VH with S30D, G33S, G50S
# VL: B1 VL with L30I, S31T
# notes: Group II
# B21: 365_G07 (antibody, V domains shown)
# VH: B1 VH with S30D, G50S, T101N, H106A
# VL: B1 VL with L30V, V33L, T94N
# notes: Group I
# B22: 365_B08 (antibody, V domains shown)
# VH: B1 VH with S30D, H35N, G50N, G55S, T58K, S59G
# VL: B1 VL with L30V, S31T, V33L, D93S, T94S
# notes: Group II
# B23: 365_A05 (antibody, V domains shown)
# VH: B1 VH with G50S
# VL: not shown
# notes: Group II
# B24: 365_F03 (antibody, V domains shown)
# VH: B1 VH with S30D, G33S, H35N, G50S, A99G, T101N
# VL: B1 VL with V33L, T94N
# notes: Group III
# B25: 365_C03 (antibody, V domains shown)
# VH: B1 VH with S49A, G55S, T58K, S59G, T101N
# VL: B1 VL with S31T, L47V, A51T, R54L, D93N
# notes: Group I
# B26: 365_G03 (antibody, V domains shown)
# VH: B1 VH with H35N, S49A, G55S, T58K, S59G, A99G, T101N
# VL: B1 VL with L30V, V33L, D93N
# notes: Group III
# B27: 368_C02 (antibody, V domains shown)
# VH: B1 VH with S30D, S31D, G33S, H35N, S49A, G50N, T58K, S59G, A99G, T101N
# VL: B1 VL with L30S, S31T, R54L, D93S
# notes: Group III
# B28: 376_C08 (antibody, V domains shown)
# VH: B1 VH with S30D, G33S, H35N, S49A, G55S, S59G, A99G, T101N
# VL: not shown
# notes: Group III
# B29: 376_E11 (antibody, V domains shown)
# VH: B1 VH with G33S, H35N, A99G, T101N, H106A
# VL: B1 VL with S31T, L47V, D93E, T94L
# notes: Group III
# B30: 376_E02 (antibody, V domains shown)
# VH: B1 VH with G33S, H35N, S49A, T58K, S59G, A99G, T101N, H106A
# VL: B1 VL with L47V, A55H, Y92D, D93N
# notes: Group III
# B31: 376_D07 (antibody, V domains shown)
# VH: B1 VH with S30D, G33S, H35N, A99G, T101N
# VL: not shown
# notes: Group III
# B32: 376_F01 (antibody, V domains shown)
# VH: B1 VH with S31D, G33S, H35N, S49A, T58K, A99G, T101N, H106A
# VL: not shown
# notes: Group III
# B33: 376_C04 (antibody, V domains shown)
# VH: B1 VH with H35N, G50N, S59G, A99G, T101N, H106A
# VL: B1 VL with A51V, A55H, T94N
# notes: Group III
# B34: 369_A03 (antibody, V domains shown)
# VH: B1 VH with H35N, G50N, S59G, A99S, T101N, H106A
# VL: B1 VL with S31T, V33L, A51V, A55H, S91G, T94L
# Target: T1, human ACVR2A (human, UniProt P27037 20-135, limits assumed)
# T1 construct: also called activin receptor, type II A
# Experiment: ELISA
# Method in brief: (§1)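 ELISA measured binding of ACVR2A-specific monoclonal antibodies to human and mouse ACVR2A. Biotinylated goat anti-human kappa light chain served as positive control and human Fc as negative control.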
# T1 sequence (P27037 20-135 limits assumed): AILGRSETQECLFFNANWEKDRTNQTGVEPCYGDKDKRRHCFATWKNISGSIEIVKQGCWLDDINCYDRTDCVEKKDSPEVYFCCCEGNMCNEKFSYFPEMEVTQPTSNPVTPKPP
# Also: test concentration or dose not given here.
row,optical density,Binder
1,3.56 OD,B1
2,2.34 OD,B2
3,2.53 OD,B3
4,2.62 OD,B4
5,2.35 OD,B5
6,2.2 OD,B6
7,1.99 OD,B7
8,2.78 OD,B8
9,2.56 OD,B9
10,2.51 OD,B10
11,2.01 OD,B11
12,1.78 OD,B12
13,2.75 OD,B13
14,2.27 OD,B14
15,2.1 OD,B15
16,3.32 OD,B16
17,2.33 OD,B17
18,1.99 OD,B18
19,2.44 OD,B19
20,2.26 OD,B20
21,2.42 OD,B21
22,1.14 OD,B22
23,2.34 OD,B23
24,2.63 OD,B24
25,2.26 OD,B25
26,2.24 OD,B26

# Target: mouse ACVR2A (mouse, UniProt P27038 20-135, limits assumed)
# Experiment: ELISA
# Method in brief: as §1
# Target sequence in this assay (P27038 20-135 limits assumed): as the sequence (P27037 20-135 limits assumed) above, with K20R, V73I counted along it
row,optical density,Binder
1,3.59 OD,B1
2,2.4 OD,B2
3,2.58 OD,B3
4,2.93 OD,B4
5,2.48 OD,B5
6,2.02 OD,B6
7,2.06 OD,B7
8,3.05 OD,B8
9,2.81 OD,B9
10,2.75 OD,B10
11,2.14 OD,B11
12,2.23 OD,B12
13,2.79 OD,B13
14,2.39 OD,B14
15,2.48 OD,B15
16,3.28 OD,B16
17,2.29 OD,B17
18,2.18 OD,B18
19,2.54 OD,B19
20,2.35 OD,B20
21,2.6 OD,B21
22,1.26 OD,B22
23,2.23 OD,B23
24,2.99 OD,B24
25,2.65 OD,B25
26,2.54 OD,B26

# Target: T2, human ACVR2A (human, UniProt P27037 20-135, limits assumed)
# T2 construct: coated antigen of the initial ELISA; also called activin receptor, type II A
# Experiment: ELISA
# Method in brief: as §1
# T2 sequence (P27037 20-135 limits assumed): as the sequence (P27037 20-135 limits assumed) above
row,optical density,Binder
1,1.38 OD,B27
2,3.61 OD,B28
3,3.68 OD,B29
4,3.3 OD,B30
5,3.38 OD,B31
6,2.77 OD,B32
7,3.63 OD,B33

# Target: T3, mouse ACVR2A (mouse, UniProt P27038 20-135, limits assumed)
# T3 construct: coated antigen of the initial ELISA
# Experiment: ELISA
# Method in brief: as §1
# T3 sequence (P27038 20-135 limits assumed): as the sequence (P27037 20-135 limits assumed) above, with K20R, V73I counted along it
row,optical density,Binder
1,1.49 OD,B27
2,3.63 OD,B28
3,3.65 OD,B29
4,3.38 OD,B30
5,3.44 OD,B31
6,3.02 OD,B32
7,3.65 OD,B33

# Target: T4, Human ACVR2A (human, UniProt P27037 20-135, limits assumed)
# T4 construct: also called activin receptor, type II A
# T4 sequence (P27037 20-135 limits assumed): as the sequence (P27037 20-135 limits assumed) above
# Experiment: ELISA
# Method in brief: as §1
row,optical density,Binder
1,0.451 OD,B34

# Target: T5, biotinylated goat anti-human kappa light chain
# T5 construct: positive control of the ELISA
# Experiment: ELISA, positive control
# Method in brief: as §1
row,optical density,Binder
1,3 OD,B1
2,3.54 OD,B2
3,3.5 OD,B3
4,3.67 OD,B4
5,3.53 OD,B5
6,3.34 OD,B6
7,3.29 OD,B7
8,3.4 OD,B8
9,3.53 OD,B9
10,3.43 OD,B10
11,3.5 OD,B11
12,3.45 OD,B12
13,3.65 OD,B13
14,3.52 OD,B14
15,3.29 OD,B15
16,3.52 OD,B16
17,3.43 OD,B17
18,3.12 OD,B18
19,3.35 OD,B19
20,3.61 OD,B20
21,3.47 OD,B21
22,3.04 OD,B22
23,3.45 OD,B23
24,3.57 OD,B24
25,3.5 OD,B25
26,3.54 OD,B26

# Target: T6, biotinylated goat anti-human kappa light chain
# T6 construct: positive control of the ELISA
# Experiment: ELISA, positive control
# Method in brief: as §1
row,optical density,Binder
1,3.51 OD,B27
2,3.46 OD,B28
3,3.47 OD,B29
4,3.41 OD,B30
5,3.44 OD,B31
6,3.18 OD,B32
7,3.4 OD,B33

# Target: T7, Goat anti-Human Kappa
# T7 construct: Positive control of the ELISA; also called biotinylated goat anti-human kappa light chain
# Experiment: ELISA, positive control
# Method in brief: as §1
row,optical density,Binder
1,3.17 OD,B34
